Results on seven molecules are retold here after patent US20040142381A1, “Methods for designing IGF1 receptor modulators for therapeutics” (priority 2002, published 2004).

In data set [1] the test system is T1, synthetic peptide substrate KKEEEEYMMMMG
T1 sequence: KKEEEEYMMMMG

Data set [2] relates to T2, synthetic peptide KKKSPGEYVNIEFG, based on the IRS-1 phosphorylation site Tyr 895.
T2 sequence: KKKSPGEYVNIEFG

For data set [3], the target named is synthetic peptide substrate …. Description: cell-based or functional assay.
Substrate in data set [4]: CC[C@H](C)[C@H](NC(=O)[C@H](CC(N)=O)NC(=O)[C@@H](NC(=O)[C@H](Cc1ccc(O)cc1)NC(=O)[C@H](CCC(=O)O)NC(=O)CNC(=O)[C@@H]1CCCN1C(=O)[C@H](CO)NC(=O)[C@H](CCCCN)NC(=O)[C@H](CCCCN)NC(=O)[C@@H](N)CCCCN)C(C)C)C(=O)N[C@@H](CCC(=O)O)C(=O)N[C@@H](Cc1ccccc1)C(=O)NCC(=O)O
In words: Km of IRS-1 Tyr 895-derived peptide substrate for IGF1RK. Particulars: other: peptide as substrate of IGF1RK. The class given is biochemical, human.

For the molecule “IGF1RK, unphosphorylated form (0P): tyrosine kinase domain of the human insulin-like growth factor 1 receptor, residues 956-1,256”, the “induction time of autophosphorylation at varying enzyme concentration (continuous spectrophotometric assay)” value is given as “the phosphorylation reaction was concentration dependent”. Besides, the Peptide Km in data set [1] amounted to 1300 µM. IGF1RK, mono-phosphorylated form (1P) came in with a Peptide Km in data set [1] of 620 µM. As to “IGF1RK (phosphorylation state not stated)”, the Km entry in data set [2] is recorded as “The Km for this peptide was determined to be 128 µM for IGF1RK”. As for “IGF1RK, tris-phosphorylated, activated form (3P)”, the Peptide Km in data set [1] was determined as 120 µM.

With “IGF1RK, tris-phosphorylated, activated form (3P) (enzyme)”, the Km for peptide ([γ-32P]ATP and phosphocellulose binding assay) in data set [3] is 150 µM.

IGF1RK, bis-phosphorylated form (2P) registered a Peptide Km in data set [1] of 130 µM.

B1: IGF1RK (Homo sapiens) (protein)
chain: VYVPDEWEVAREKITMSRELGQGSFGMVYEGVAKGVVKDEPETRVAIKTVNEAASMRERIEFLNEASVMKEFNCHHVVRLLGVVSQGQPTLVIMELMTRGDLKSYLRSLRPEMENNPVLAPPSLSKMIQMAGEIADGMAYLNANKFVHRDLAARNCMVAEDFTVKIGDFGMTRDIYETDYYRKGGKGLLPVRWMSPESLKDGVFTTYSDVWSFGVVLWEIATLAEQPYQGLSNEQVLRFVMEGGLLDKPDNCPDMLFELMRMCWQYNPKMRPSFLEIISSIKEEMEPGFREVSFYYSEENK
notes: encoding residues 956-1,256 of the human insulin-like growth factor 1 receptor (IGF1RK); made in house; host or cells: Spodoptera frugiperda (Sf9) cells, baculovirus
With B1, the Km in data set [4] was 128 µM.

In general, Km refers to the concentration of substrate that gives half-maximal velocity.
